{"source": "paper PMC10987460", "about": "“Impact of different models based on blood samples and images for bone marrow dosimetry after ^177Lu-labeled somatostatin-receptor therapy” (EJNMMI Physics, 2024)", "key": {"[1]": {"settings": "in vivo; cited from earlier work", "text": "Table 1 Literature review of absorbed dose in bone marrow for ^177Lu-PRRT | column: Bone marrow absorbed dose (Gy/GBq) || Recently, the EANM dosimetry committee published its recommendations for the dosimetry of ^177Lu-labeled somatostatin-receptor and PSMA-targeting ligands. For ^177Lu-PRRT, the median value for the red marrow absorbed dose across all the studies is 50 mGy/GBq. The total-body time activity curve (TAC) is generally biphasic, as is the case for the blood TAC. The recommendation for dosimetry is to measure the activity concentration in the blood even if sequential planar or SPECT/CT whole-body imaging is also possible. || The median absorbed dose ranged from 15.3 to 63.9 mGy/GBq depending on the method used, which is coherent with the median literature value of 50 mGy/GBq (range 2 to 150 mGy/GBq) (see Table 1). With the blood-based method, the tri-exponential model gave a higher median absorbed dose than the bi-exponential model, which also gave a higher median dose than the mono-exponential model. The tri-exponential model was not always accurate and sometimes gave an infinite AUC, that is maybe due to the low number of points especially for the image-based method where we only have 4 points."}, "[2]": {"settings": "human, in vivo; cited from earlier work", "text": "Peptide receptor radionuclide therapy (PRRT) with ^177Lu-DOTATATE or ^177Lu-oxodotreotide, a somatostatin analog radiolabeled with ^177Lu, is a recognized therapeutic option for metastatic or symptomatic patients with midgut WHO grade I-II neuroendocrine tumors. […] The standard treatment consists in four intravenous injections of 7.4 GBq of ^177Lu-DOTATATE administered every 8 weeks. This the ..."}, "[3]": {"set-up": "species or system patients", "settings": "in vivo", "experimental": "A retrospective study was conducted on 59 patients treated in our institution for neuroendocrine tumors (NET) with ^177Lu-DOTATATE (Lutathera ®) between 2019 and 2021. In a standard study, patients received 4 cycles of ^177Lu-DOTATATE at the recommended activity of 7400 MBq during a 30-min intravenous perfusion. The interval between each cycle was eight weeks. The study was declared to the Health Data Hub (number: F20230102114415).\nSix to nine blood samples were collected at 0.5, 1, 2, 4, 8, 16, 24, 72 and 144 h post-injection in each patient. Blood was collected in the arm contralateral to that in which ^177Lu-DOTATATE was injected. Blood samples were centrifuged at 1000xg for 10 min at ambient temperature. Radioactivity was measured in 1 ml aliquots of plasma using a WIZARD^2™ 2480-0010 Gamma Counter (Perkin Elmer, MS, USA). A calibration curve with ^177Lu-DOTATATE was established to normalize the data obtained with the gamma counter. Radioactivity-time data were expressed in MBq/L after correction for radioactive decay between the time of the sampling and the measurement according to the equation: C(t)corr=C(t)measured×e^-Ln2/T1/2,177Lu(tmeasured-t) where C(t)corr is ^177Lu-Dotatate concentration at time t corrected for radioactive decay, C(t)measured is the ^177Lu-Dotatate concentration measured at time tmeasured, T1/2,^177Lu is the half-time disintegration of ^177Lu and T0 is the time of ^177Lu-Dotatate injection.\nFor the blood-based method, the activity concentration was fitted by a mono-, bi- or tri- exponential curve to infinity to estimate the area under the curve (AUC) using an in-house Python program (Python 3.10, numpy and matplotlib libraries). […]\nTo estimate the influence of the late timepoints for the blood-based method, we estimated the absorbed dose with only the timepoints before 24 h post-injection. For the image-based method, we kept only three timepoints by deleting the last one and compared the absorbed dose to the one calculated with all the timepoints."}}}
{"smiles": "C[C@@H](O)[C@H](NC(=O)[C@@H]1CSSC[C@H](NC(=O)[C@@H](Cc2ccccc2)NC(=O)CN2CCN(CC(=O)O)CCN(CC(=O)O)CCN(CC(=O)O)CC2)C(=O)N[C@@H](Cc2ccc(O)cc2)C(=O)N[C@H](Cc2c[nH]c3ccccc23)C(=O)N[C@@H](CCCCN)C(=O)N[C@@H]([C@@H](C)O)C(=O)N1)C(=O)O", "note": "[^177Lu-DOTATATE, metal not drawn]", "values": [{"measurement": "Median value for the red marrow absorbed dose across all the studies", "setting": "[1]", "result": 50, "unit": "mGy/GBq"}, {"measurement": "Range of literature red marrow absorbed dose", "setting": "[1]", "result": "2-150 mGy/GBq"}, {"measurement": "Grade 3 or 4 lymphopenia", "setting": "[2]", "result": 9, "unit": "%"}, {"measurement": "Grade 3 or 4 thrombopenia", "setting": "[2]", "result": 2, "unit": "%"}, {"measurement": "Leukemia, treated patients", "setting": "[2]", "result": "about 1%"}, {"measurement": "Myelodysplastic syndrome (MDS), treated patients", "setting": "[2]", "result": "about 2%"}, {"measurement": "Effective half-life, first phase", "setting": "[3]", "result": "12 to 348", "unit": "min"}, {"measurement": "Effective half-life, second phase", "setting": "[3]", "result": "96 to 2080", "unit": "min"}, {"measurement": "Median absorbed dose (bone marrow), range over methods and models", "setting": "[3]", "result": "15.3-63.9 mGy/GBq"}]}
